Source: article doi:10.1101/2022.03.11.483938v2

What was measured:
purified protein [1] = substrate: Nc1ncnc2c1ncn2[C@@H]1O[C@H](COP(=O)(O)O)[C@@H](O)[C@H]1O; assay: purified protein; conditions: hydrolysis rate gradually decreased under the selected conditions
purified protein [2] = substrate: Nc1ncnc2c1ncn2[C@H]1C[C@H](O)[C@@H](COP(=O)(O)O)O1; assay: purified protein; conditions: constant hydrolysis rate

B1: SiE5NT (ecto-5'-nucleotidase) (Serendipita indica DSM 11827) (protein)
chain: KVDSLVSERALQKRFVDANGNYNVTIVHTNDVHAHLDQWRAGRGTDCTPGSECISGYARIKQKVSELRQSIQDPIFLNAGDEFQGTLFFTYYGGEKISYAINEVGYDVFTLGNHEFDRGQGELAAFLKNLTFPVVCANFKTNDTAMNALNIQPYTIIEKHQLGIIGVITPDTKGTSSGAGPGTEFSDPVQAVQKAVDELQAKNITRIIALTHIGYDKDIELAQKTKGVDLIVGGHSHTLLGNFTNAMGSYPTTAKNLDGEEVFIVTSYRWGEILGKMNIAFDASGKIVSYEGEPLRLTNTTQQDPKLQAEVNEWRQPFDAMAQVVVGTSSVVLDQSICQFSECTLGNVITDAMYEYRKNAGGNVDFALINSGGIRASISEGTVTQGDILTSFPFMNGVVDLTWTGKQLLDIFEGVVSKYSTLSHHATTSFIQVSKQVKFSWNPNNVNQTRLITLEIGGQQVDVNKNYTMVTLDFLASNGDYLWGTRTDFAALDTLDVVLASYFKAHSPVGASIEGRITNSTSTTQQLPGKGSSGGSGGASALIVSGLSAGMMLLAGMMLV
Protein B1 has a Km (purified protein [1]) of 15.9 µM, a kcat (purified protein [1]) of 1.1 s⁻¹ and a Km (purified protein [2]) of 361.6 µM. The kcat (purified protein [2]) was 11.9 s⁻¹.
